# Measurements published in patent publication US20190381169A1, “PHARMACEUTICAL COMBINATIONS FOR IMMUNOTHERAPY” (Technische Universitat Dresden, priority 2014, published 2019).
# “Also recorded” adds a separate entry of the source.
# Molecular target: T1, p75^NTR (Homo sapiens, UniProt P08138)
# T1 sequence (P08138 29-427): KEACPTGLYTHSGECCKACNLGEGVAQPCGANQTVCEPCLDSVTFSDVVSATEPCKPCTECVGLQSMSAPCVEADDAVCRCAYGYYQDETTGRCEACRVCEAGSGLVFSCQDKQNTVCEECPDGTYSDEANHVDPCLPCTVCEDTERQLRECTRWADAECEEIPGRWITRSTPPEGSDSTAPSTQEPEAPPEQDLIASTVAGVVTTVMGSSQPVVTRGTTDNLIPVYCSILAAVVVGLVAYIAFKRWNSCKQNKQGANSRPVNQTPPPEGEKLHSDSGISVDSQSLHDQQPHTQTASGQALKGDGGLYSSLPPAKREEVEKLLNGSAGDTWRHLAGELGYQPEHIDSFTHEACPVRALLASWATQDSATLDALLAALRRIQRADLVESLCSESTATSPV
# Assay: Antigen mediated proliferation and cytokine secretion of CD4+ T-cells co-cultured with autologous PDC of allergic donors
# Assay type: cell-based
# Design: nerve growth factor receptor p75^NTR, which is expressed by human and murine plasmacytoid dendritic cells (PDC); endogenous in cells; host or cells: primary human plasmacytoid dendritic cells (BDCA-4+ selection) from buffy coats or from peripheral blood of allergic donors
# Experimental: CD4^+ T helper cells and PDC used in antigen mediated autologous CD4^+ T-cell proliferation assays were purified from peripheral blood (80 ml) obtained from specified donors who are known to have allergy against certain allergens. Peripheral blood was drawn in tubes containing Li-Heparin as anti-coagulant (S-Monovette Li-Heparin 7.5 ml, Sarstedt). CD4^+ T helper cells were purified from peripheral blood mononuclear cells by negative selection using CD4^+ T-cell isolation kit II (Miltenyi Biotec), as per manufacturer's instructions with slight modifications. Briefly, the cell pellet was re-suspended in 50 μl PBS E/B. Then 12 μl of Biotin-labelled antibody cocktail per 10^7 total cells were added and the cell suspension was incubated at 4° C. for 15 minutes. 50 μl of PBS E/B was added followed by addition of 25 μl of anti-biotin microbeads per 10^7 total cells. Cells were incubated at 4° C. for another 20 minutes, followed by washing with 10 ml PBS E/B and centrifugation (470 g for 6 minutes). […] The purity of isolated CD4^+ T helper cells was over 95% as assessed by flow cytometric analysis after co-staining with monoclonal mouse anti human CD3-PE (BD Biosciences) and monoclonal mouse anti human CD4-FITC (BD Biosciences). […]
# Purified CD4^+ T helper cells (see above) were washed once with PBS. […] Cell number was determined.
# Antigen mediated CD4^+ T helper cell proliferation responses were assayed using purified and CFSE labelled CD4^+ T helper cells in co-culture with purified PDC/BDAC4^+ cells. […] After 5 days of co-culture, supernatant was analyzed for Th1/Th2 cytokines by using BD cytokine bead array (CBA) Human Th1/Th2 cytokine kit (BD Biosciences) and percentages of proliferating CFSE-low CD4^+ T-cells were analyzed by flow cytometry.
# The concentrations of IL-2, IL-4, IL-5, IL-10, IFNγ and TNFα in the supernatant were determined by using the CBA kit following manufacturer's instruction with modification in data analysis using Microsoft Excel. […]
substance,measurement,setting,value
"NGF: Nerve growth factor, best characterized neurotrophin; natural p75^NTR agonist (R&D Systems)",secretion of IL-2 and IL-5,"CD4+ T-cell/PDC co-culture with allergen, NGF vs without NGF",dose-dependent increased secretion; also recorded: increasing secretion
same,antigen (allergen) mediated CD4+ T-cells proliferation (CFSE),"co-culture with autologous PDC plus specific allergen, NGF (25 ng/ml elsewhere in the source) vs without NGF, 5 days",significantly increased; also recorded: increased proliferation
same,proliferation of T-cells on its own (without PDC co-culture),with or without antigen plus minus NGF or with NGF alone,did not show any proliferation
